Reference: article PMC7979749, “Structural basis of the dynamic human CEACAM1 monomer-dimer equilibrium” (Communications Biology, 2021)
Each block holds one molecule with its values, some of them ahead of it.

Tests used:
TIM-3 IgV (Homo sapiens) = TIM-3 IgV (Homo sapiens) (UniProt Q8TDQ0); details: cited from earlier work
[1] = biological target: CEACAM1 IgV (Homo sapiens) (UniProt P13688); details: cited from earlier work
[2] = biological target: human CEACAM1 IgV domain, N97A mutant (human) (UniProt P13688); experiment: NMR titration; 15N-HSQC spectra at varying protein concentration (N97A 16-500 μM; WT 10 μM and 1 mM); 10 mM HEPES, 50 mM NaCl, pH 7.0, 25 °C; dimer to monomers; rough estimate from peak trajectories of Q44 and A49
[3] = biological target: the molecule itself; experiment: SEC-MALS; samples at 100 μM injected onto TSK-gel Bioassist G4SWxl, 10 mM HEPES pH 7.4, 150 mM, 0.5 mL/min; self-association, monomer to dimer
[4] = biological target: the molecule itself; experiment: crystal structure; mutant proteins concentrated to 10 mg/ml (exceeding 800 μM); molecular replacement with PDB 4QXW; self-association in the asymmetric unit

Sequence of TIM-3 IgV (Homo sapiens) (Q8TDQ0 22-124): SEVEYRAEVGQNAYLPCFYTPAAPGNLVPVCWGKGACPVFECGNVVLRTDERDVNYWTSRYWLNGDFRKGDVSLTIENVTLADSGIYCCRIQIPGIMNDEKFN

Molecule: CEACAM1 IgV (from UniProt P13688)
Kd (TIM-3 IgV (Homo sapiens)): 2.5 µM
Kd [1]: 0.45 µM

Kd [2]: > 1000 µM
Molecule: human CEACAM1 IgV domain, N97A mutant (from UniProt P13688 35-141) (domain or fragment)

B1: human CEACAM1 IgV domain, V39A mutant (domain or fragment)
chain: QLTTESMPFNVAEGKEVLLLVHNLPQQLFGYSWYKGERADGNRQIVGYAIGTQQATPGPANSGRETIYPNASLLIQNVTQNDTGFYTLQVIKSDLVNEEATGQFHVY
notes: unglycosylated; also called hCEACAM1 V39A
binding result [3]: binds

B2: human CEACAM1 IgV domain, I91A mutant (domain or fragment)
chain: QLTTESMPFNVAEGKEVLLLVHNLPQQLFGYSWYKGERVDGNRQIVGYAIGTQQATPGPANSGRETIYPNASLLIQNVTQNDTGFYTLQVAKSDLVNEEATGQFHVY
notes: unglycosylated
binding result [4]: binds

B3: human CEACAM1 IgV domain, wildtype (domain or fragment)
chain: AQLTTESMPFNVAEGKEVLLLVHNLPQQLFGYSWYKGERVDGNRQIVGYAIGTQQATPGPANSGRETIYPNASLLIQNVTQNDTGFYTLQVIKSDLVNEEATGQFHVY
notes: Carcinoembryonic antigen-related cell adhesion molecule 1 (CEACAM1), human, N-terminal IgV domain; NMR samples were 15N/13C or 15N/13C/2H labelled; also called hCEACAM1 WT IgV; WT; source: isotope-labelled samples expressed from E. coli in M9 minimal medium, purified
stoichiometry N [3]: 2
